Paper doi:10.1101/2024.12.03.626679 (2024)

How the values were obtained:
SMYD2-F184A = SMYD2-F184A (human, UniProt Q9NRG4 1-433, F184A); experiment: ITC; one-site model
[1] = biological target: T1, Full-length human SMYD2 (residues 1-433), wild type (human, UniProt Q9NRG4 1-433); experiment: ITC; two-site model, KD1
[2] = biological target: T1, Full-length human SMYD2 (residues …); experiment: ITC; one-site model (n = 2.01)
[3] = biological target: T1, Full-length human SMYD2 (residues …); experiment: ITC; two-site model, KD2 (second site)

T1 sequence (Q9NRG4 whole entry, the tested form may be a part): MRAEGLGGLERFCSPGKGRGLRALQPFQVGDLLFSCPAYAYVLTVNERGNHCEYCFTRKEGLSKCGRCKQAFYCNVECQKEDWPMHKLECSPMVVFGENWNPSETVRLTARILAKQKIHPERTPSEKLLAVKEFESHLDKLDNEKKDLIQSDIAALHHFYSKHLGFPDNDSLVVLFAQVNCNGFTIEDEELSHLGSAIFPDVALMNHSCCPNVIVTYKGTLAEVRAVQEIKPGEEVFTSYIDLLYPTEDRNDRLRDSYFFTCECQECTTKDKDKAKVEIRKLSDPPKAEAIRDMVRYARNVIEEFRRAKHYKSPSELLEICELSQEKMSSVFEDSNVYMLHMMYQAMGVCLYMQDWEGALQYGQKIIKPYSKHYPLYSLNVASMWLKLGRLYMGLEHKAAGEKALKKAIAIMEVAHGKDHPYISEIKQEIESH
Sequence of SMYD2-F184A (Q9NRG4 whole entry F184A, the tested form may be a part): as the sequence (Q9NRG4 whole entry, the tested form may be a part) above, with F184A counted along it

B1: PARP1 peptide (13-residue synthetic peptide, human PARP1 residues 522-534) (peptide)
peptide: RMKLTLKGGAAVD
B1 showed a Kd (SMYD2-F184A) of 41.7 µM, a Kd [1] of 17.8 µM and a Kd [2] of 17.7 µM. The Kd [3] was 18.2 µM.
